Laboratory results as given in patent US7910100B2, “Antibodies directed to the mammalian EAG1 ion channel protein” (Max-Planck-Gesellschaft zur Forderung der Wissen, priority 2004, dated 2011).

B1: ImAb1: mouse monoclonal anti-Eag1 antibody; VL SEQ ID NO: 43, VH SEQ ID NO: 44; binds C-terminus of Eag1 (antibody, listed as Mus musculus)
heavy: MNFGFSLIFLVLVLKGVQCEVKLVESGGGLVKPGGSLKLSCAASGFTFSNYAMSWVRQTPEKRLEWVASISSDGDTYFPDNVKGRFTISRENAGNILFLQMSSLRSEDTAMYYCARGFMITFWGQGTLVTVSAAKTTPPSVYPLAPGCGDTTGSSVTLGCLVKGYFPESVTVTWNSGSLSSSVHTFPALLQSGLYTMSSSVTVPSSTWPSQTVTCSVAHPASSTTVD
light: MDMRAPAQFFGILLLWFPGIRCDIKMTQSPSSMYASLGERVTITCKASQDIKSYLSWYQQKPWKSPKILIYYATSLADGVPSRISGSGSGQDYSLTISSLESDDTATYYCLQHGESPYTFGGGTKLEIKRADAAPTVSIFPPSSEQLTSGGASVVCFLNNFYPKDINVKWKIDGSERQNGVLNSWTDQDSKDSTYSMSSTLTLTKDEYERHNSYTCEATHKTSTSPIVKSFNRNEC
B2: ImAb4: mouse monoclonal anti-Eag1 antibody, IgG2b kappa; light chain SEQ ID NO: 2, heavy chain SEQ ID NO: 4 (antibody, listed as Mus musculus)
heavy: MRVLILLWLFTAFPGILSDVQLQESGPGLVKPSQSLSLTCTVTGYSITSDYAWNWIRQFPGNKLEWMGYISYSGSTIYNPSLKSRISITRDTSKNQFFLQLNSVTTEDTATYYCARFGNYGNTLNYWGQGTSVTVSSAKTTPPSVYPLAPGCGDTTGSSVTLGCLVKGYFPESVTVTWNSGSLSSSVHTFPALLQSGLYTMSSSVTVPSSTWPSQTVTCSVAHPASSTTVDKKLEPSGPISTINPCPPCKECHKCPAPNLEGGPSVFIFPPNIKDVLMISLTPKVTCVVVDVSEDDPDVQISWFVNNVEVHTAQTQTHREDYNSTIRVVSTLPIQHQDWMSGKEFKCKVNNKDLPSPIERTISKIKGLVRAPQVYILPPPAEQLSRKDVSLTCLVVGFNPGDISVEWTSNGHTEENYKDTAPVLDSDGSYFIYSKLNMKTSKWEKTDSFSCNVRHEGLKNYYLKKTISRSPGK
light: MKLPVRLLVLMFWIPASSSDVVMTQTPLSLPVSLGDQASISCRSSQSLVHSNGNTYLHWYLQKPGQSPKLLIYKVSNRFSGVPDRFSGSGSGTDFTLKISRVEAEDLGVYFCSQSTHVPPTFGGGTKLEIKRADAAPTVSIFPPSSEQLTSGGASVVCFLNNFYPKDINVKWKIDGSERQNGVLNSWTDQDSKDSTYSMSSTLTLTKDEYERHNSYTCEATHKTSTSPIVKSFNRNEC

How the values were obtained:
[1] = target: T1, Eag1 in rat brain sections (Rattus norvegicus, UniProt Q63472); assay: Immunohistochemistry of rat brain sections (cerebellum, hippocampus); type: binding; settings: ImAb1 4 μg/ml, ImAb4 2 μg/ml, overnight 4° C.
T1 construct: from tissue; host or cells: brain (cerebellum, hippocampus) of postnatal-day 21 Sprague Dawley rats
T1 sequence (Q63472 1-962): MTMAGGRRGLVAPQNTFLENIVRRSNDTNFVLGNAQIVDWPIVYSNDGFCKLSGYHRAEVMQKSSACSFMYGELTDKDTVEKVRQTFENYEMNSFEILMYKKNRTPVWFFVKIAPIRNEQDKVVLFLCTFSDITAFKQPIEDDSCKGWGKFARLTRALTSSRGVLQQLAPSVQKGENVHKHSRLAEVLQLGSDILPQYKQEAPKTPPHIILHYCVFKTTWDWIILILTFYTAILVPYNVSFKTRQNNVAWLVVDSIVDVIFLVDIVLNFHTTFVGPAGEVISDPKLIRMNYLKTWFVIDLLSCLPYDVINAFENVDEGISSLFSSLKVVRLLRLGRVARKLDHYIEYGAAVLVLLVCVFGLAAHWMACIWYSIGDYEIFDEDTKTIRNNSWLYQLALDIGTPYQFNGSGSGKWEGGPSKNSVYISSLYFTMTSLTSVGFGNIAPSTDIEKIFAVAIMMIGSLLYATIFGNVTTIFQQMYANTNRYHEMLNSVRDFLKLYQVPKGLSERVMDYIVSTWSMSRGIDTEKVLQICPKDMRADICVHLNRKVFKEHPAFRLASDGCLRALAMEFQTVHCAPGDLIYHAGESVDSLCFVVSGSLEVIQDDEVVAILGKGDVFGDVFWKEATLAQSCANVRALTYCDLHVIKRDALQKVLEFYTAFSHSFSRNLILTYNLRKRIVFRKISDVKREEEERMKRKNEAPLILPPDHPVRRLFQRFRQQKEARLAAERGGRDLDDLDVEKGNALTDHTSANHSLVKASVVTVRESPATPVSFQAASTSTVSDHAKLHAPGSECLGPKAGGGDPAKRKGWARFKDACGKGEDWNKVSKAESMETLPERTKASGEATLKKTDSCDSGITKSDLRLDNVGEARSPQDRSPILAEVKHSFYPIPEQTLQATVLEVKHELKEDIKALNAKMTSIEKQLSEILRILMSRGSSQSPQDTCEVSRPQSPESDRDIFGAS
Experimental: Cross-reactivity of anti-Eag1 antibodies of the invention were further analysed by Immunohistochemistry studies of rat brain sections of the cerebellum and the hippocampus. For the IHC, two postnatal-day 21 Sprague Dawley rats were anesthetized with a mixture of ketamine HCl (Ketaset; 100 mg/ml; Fort Dodge Laboratories, Inc., U.S.A.) and xylazine (Rompun; 20 mg/ml; Mile, Inc., U.S.A.) at 0.1 ml/100 g body weight. The animals were transcardially perfused with a fixative consisting of 4% p-formaldehyde in 0.12 M phosphate buffer (pH 7.2). After perfusion, brains were removed, fixed for an additional hour at 4° C., rinsed three times with PBS and stored overnight at 4° C. Coronal and sagital sections (40-50 μm) were cut in cold PBS using a vibratome (Leica, Vienna, Austria). Slices were incubated for 1 h with 10% normal goat serum in PBS, then with anti-Eag1 antibodies ImAb1 (4 μg/ml) and ImAb4 (2 μg/ml) in PBS overnight at 4° C. and processed using the avidin/biotin-peroxidase system (Vectastain kit, Vector Laboratories, Burlingame, Calif.). Antibody binding was visualized using 3′-3-diaminobenzidine tetrahydrochloride (DAB; DAB substrate kit for peroxidase, Vector Laboratories). […] Sections were analysed with a Zeiss Axiophot microscope.

[2] = tested on: Eag1 peptides (pore domain / CAD domain of immunogen); assay: Epitope mapping on SPOT cellulose membrane with 76 overlapping peptides; type: binding; settings: 76 overlapping 13 mer peptides, shift 2 aa; antibody diluted 1:2000
[3] = tested on: Eag1 overexpressing CHO K1 cells; assay: Internalization of Cy3-labelled antibodies, immunofluorescence on living cells; type: cell-based; settings: Cy3-labelled antibody; for binding to Eag1 antigen on living cells: overnight; for internalization into cells: within 24 h
Experimental: In order to analyse the internalization properties of the anti-Eag1 antibodies of invention, CHO cells were grown on coverslips and incubated in normal medium (Ham's F12, 10% FCS) overnight (37 C, 5% CO2) with anti-Eag1 antibodies ImAb1 and ImAb4 directly labeled with Cy3 (100 μg). Cultures were thereafter incubated with app. 2 μg/ml Hoechst 33342 for 10 min.

Molecule | cross-reactivity with rat (IHC staining) [1] | peptide spots bound (epitope) [2] | binding to Eag1 antigen on living cells [3] | internalization into cells [3]
B1 | cross-reacts with other mammalian species such as rat | bound weakly to peptides 21-24 | bind to Eag1 antigen on living cells expressing the antigen | are internalized into the cells
B2 | cross-reacts with other mammalian species such as rat | bound at spots 3-8 | bind to Eag1 antigen on living cells expressing the antigen | are internalized into the cells
